Test results from paper PMC11098746 (2024).
No end group written: not given here.

Target: FGFR4 ectodomain (Homo sapiens, UniProt P22455)
Experiment: AVEXIS normalised luminescence

| Binder | binding score |
| --- | --- |
| 57 (protein, bait human Fc-tagged dimer) NDLCSCNLKVRNNWEHFLQVYQNNGNFKMEILEPECTIQKNLPSEEEKEEFIDFDRKELLLHDFVVIKNSQFTDEKTLELYLSKEENNKAYLMLTFYLGDLKLMIGHNSPYEISLILNVATVNKNMANCKNNAYNIVLLKTTDVFNTADLEILEGPIQFSLGKSSGAFRINVANFFLNNAWKAFTKDKISFLIKPEENCYTILENKINKPQLLIEKKTTFYSEWGEWSNCAMDCDHPDNVQIRERECIHPSGDCFKGDLKESRPCIIPLPPCNELFSHKDNS | 0.899 |
| 47 (protein, bait human Fc-tagged dimer) NNIAHKEDDCGASELAIKKLQELKKFELDILKDFIKKDTDHTDMYKRYHCISSDFLKNTKQEDKKEDNYAKKEDKKDIENSANYIINNKNEKISFINKIISFVGMWNYNKYGNNIQESKNKINIYNNNNNKAENELLYNKEDYTNHIPTNENPNSYMQLSAFNLAKKSMFLGGKDNAAQNFEVGNYGSFYMIFGARNTDYPWACSCDTLQLEEYKEKKRSYVLCSNQLDMSIQNSDLFCNPKN | 0.93 |
| 88 (protein, bait human Fc-tagged dimer) FENAIKKTKNQENNLALLPIKSTEEEKDDIKNGKDIKKEIDNDKENIKTNNAKDHSTYIKSYLNTNVNDGLKYLFIPSHNSFIKKYSVFNQINDGMLLNEKNDVKNNEDYKNVDYKNVNFLQYHFKELSNYNIANSIDILQEKEGHLDFVIIPHYTFLDYYKHLSYNSIYHKSSTYGKCIAVDAFIKKINEAYDKVKSKCNDIKNDLIATIKKLEHPYDINNKNDDSYRYDISEEIDDKSEETDDETEEVEDSIQDTDSNHAPSNKKKNDLMNRAFKKMMDEYNTKKKKLIKCIKNHENDFNKICMDMKNYGTNLFEQLSCYNNNFCNTNGIRYHYDEYIHKLILSVKSKNLNKDLSDMTNILQQSELLLTNLNKKMGSYIYIDTIKFIHKEMKHIFNRIEYHTKIINDKTKIIQDKIKLNIWRTFQKDELLKRILDMSNEYSLFITSDHLRQMLYNTFYSKEKHLNNIFHHLIYVLQMKFNDVPIKMEYFQTYKKNKPLTQ | 1.03 |
| 70 (protein, bait human Fc-tagged dimer) NTYIYLKQDSFVFSNEFPTVEEKNQALGENYEIVTLTTKDNHKFTCWYIKTKDSENKPIMLYFQGNGGYLEKYMNLFNLIIERVDVNIFSCSNRGCGSNIAKPSEEYFYKDAHVYIEYVKTKNPKHLFIFGSSMGAAVAIDTALKQHDHISGLIVQNAFTSLKELSRYSHPFLNYFLFDYDMIIRSKMDNEAKIKNIAVPTLFTLSEMDEKVPTSHTRTLFQLSASTNKQLYLSKGGTHPNILKNDDGSYHKAMKKFIVTAISIREKNIQKAVERNPNTPN | 0.951 |
| 3 (protein, also: human Fc-tagged dimer) MGFHIQRYIAMMGRGINPKTWKKLWVDSKNKQIIHVYNDVAEFMNNQIAQVVRVYQYRY | 0.753 |
| 53 (protein, bait human Fc-tagged dimer) EKLISKLTKNGDLDLVLLYDIGFVDDSENDHMNSLENIAELGKNLLVRDNKNINLAYITYDDINVDLRIESRNNIGVDNENNYDKDNNAAYKFGSDKNIEEFRNVVLDTKLKSSYKNSAHLKALNYVGLKHFYNSEKESVKMVVMFMNTDGDYNNNNNNNMNNIASSYSAELNLVHYLFDRKNIILNIITRVAFKNYCHYIQQIGSNTNELLKCVLKNSFYNIAALTYEIIKYYDDISINAICHGWSEWSPCSVTCNMGYHFSKRDSLGYIKNSKSGLYKRKGRSCLEQRNLIIQECFNTACDHSLDICDNIYMDISILLDDSSNIALESWNKYIIPFVRKFITHFNINNNQINFALTTYSSHTYNWFNFANVLSKDKDKLLTYLEFFKFNFGSSTKNIKQAIQYMNDHVLNTNYRRNDAKKIMLIINSGEIDNKAVTSVPDIIQRLKDTHNVQVYSICINNQNVKNCRKLSTHSMEKYGSNFAFSLPNAADLRYNVLGIQKSICRNVAGAFRRKLRSGNKDDEDKKDDEYKEEDEYKEEDEYKEEDEYKEEDEYKEEDEYKEEDEYKEEDEDMKKDEDMKKDEDMKKDEYKKGYKDYKKDQSKNDNKAEERKDEGNIATSNEHHASEKTDDEDIITQYNEEDRHDNSNDNIIIDDEPVGQDNSIFKNENFFWGRGKHDSKYTSKLSINSLGDINEYNDDYNNYDYYDDDPTNRNKGFLKKNSIILKSLYNLNEDYVNNNINNDAGSTSSHCRNNNAGHNDIPHFKNMRKYNSETNIPCSSKSNKATNKKLLNRLYNMLFRKKKKYRIKNMDAHSKKKVEKFIENIKFSKENNDDNRKIDEQNIEIQFDTLLDGIFDFLQDYDNSALNAFNNAAPDDDFVYFSNTAPCGVSLMDFPIYDMENMEADVGGKRNDGDNNDDDDNNDDGDNNDDGDNNDDDDNDDKSNNNNNNNNNGDPSSNNNNNNNNNNGDPSSNNNNNNNGDPSSNNNDDGDADEKRNDYISQYNLVLKDKSHNNNYYMTNEHDERKIKKQENIDILSKEEDNIASNYNNELQRTKRSLDFPEIIIKENYENPKDIIHISKKEEANEANNAKGHINLKNKKEHNNVVDNVNPCNKQNINEEDNNINNAIKTARIGIFNKNKINCRNKKASKFDKIKRFNDKINKDNHPLITNVENKNEEIDVLQNNEDKKQKILPIIKNENAKETGQKYENNDVYEEHNKANINNNVEKLYKDKNSHHIKNQYDKGNLAENNEVTPIYSKDYDADDEEYEHWHGHQRDNKATP | 1.23 |
| 1 (protein, bait human Fc-tagged dimer) EVESSDSTSFLNLISGQSSSNSDDTVSSSDSRGVVASVSGTVDSDVSRTDSTGNVNSKNSELSETRQNSVEQNNNANSADNSIKIKSAFLKENVGVKITGPCDEGFGLVMVPHIIINVDTRNTDIQLGKKSSEINYGIKLRKKGKDEYEEKVGIDLLKNVCETGKNFKFVAYIKGDELIIKWKVIEEGNIPIDIKKFKIKRMSPPITSIQVFSSMSDEKSFVLENKNYVVTNNMPEKCEALATNCFLSGNIDIEKCYQCSLLVENDAKSDVCYNFISRENKEKLNEERFKVKGSTEYEESVESELKGAIDLLISSFYKSDGENGENVLISFEDLNSALEDDIINFCSLLKLVDLSGTFMNHQIGTTADAFNNIVKLLKEHKEEDEFVLRTKLRNPALCMKNVDDWVKSRCGLLTSDDSYVVIKKNSDTNGKNENNEANDEEYDGVIDLSTNENGNVKSIQFNDDIYCNDDYCNRWKNENNCISKIGVEDQGNCASSWAFASKLHFETLRCMKGYDHLGISALYLTNCAKGKISKRCTEGGNPAEFLEIVSNSGFLPTEFDYPYFYALVENSCPSGLNKWINLWEDVKLFDYKYEPNSIGSKGYSVYKSEMFKDNMDEYVKMIKSEIKNKGSVIAYINAQSVLTYDFNGKNILNMCGSKTTDHSINVIGYGHYKNKEGEEKSYWLVRNSWGYYWGDEGNFKVDMYGPSNCNYHFINTVLVFNIDIPMMNNNENNKKGLYNYFPKYTHEFYHNFYDQNFGSDNKISLINSNGANKNDVNNAYTVHGQSGETEVQPSQLRSTANQDSNRGAVTSDPLRTQPETTSTSVKKMDVFQVLKHVKNSKIKVGLIKYDNDDEIGAHHSCTRAYSFDPEKYDECVEFCRKNWEQCKDKPSPGFCLTKLDESKGCFFCYV | 1.25 |
| 71 (protein, bait human Fc-tagged dimer) EERYNFNMDKMLKITCHINLHLKKNPHFTITYKKNLQECIDSCKTNIYCTGIEFSRKRVEYTQIILKNNKKIILGYFKCKQFYFQNIYDYSSYNLDSYLNEHIENQINIKSTLTYTNFIMRNKPDIIYTCSIDRDPKYLLYKNYKLVECVIGKFCPGNNAPYMISCPINSATIIPASEDVNKCLCLKGYSYVGVTSYRCSLCDRGSYKNSVGNNKCDNCPLTFSTTHRGSTNIKDCSCTSGNYLTFD | 1 |
| 10 (protein, bait human Fc-tagged dimer) FRKYDKNKNKILISHSINNNNNAIKNNNNNNNAIKNNNNNNNAIKNNNNNNNAFSATSFSSEKNKNKAYTNVLKKKNIYIREESNKATNIKEDEEKNKKINNNDKETNYAFLSLKFFPFILTSLLHTGINQIPRNTEIELYEFEKSPMIRHMLVAEERKN | 1.56 |
| 36 (protein, bait human Fc-tagged dimer) QDEKSVKNICVCDFTDKLNFLPLEKTKILCELKPQYGEDIKIIANKEYEINCMNNAKVFCPLKDTFINNANIKLYSPKLHFEIKDITHKGKNAALYYLKIDEEASDIFFSCSIKPKQVSGLLEGEVRVNLKKHINEEYSIFNEEEDVHVCDFSKGNLDITPSAGFYLKNSRNVACIYRVIPNKLFLIKLPKLDIVTEKLLPSIVNCLSEFSFINFALKHVQEGDNYISFNVIFGEFKKHFNLACSLDLSDFQQEPCNLGKTANIAFIFSK | 0.937 |
| 20 (protein, bait human Fc-tagged dimer) DIIIVDSNKDIQGFDPNSVLNLAENVFNIFLDTKTNNADIKTVYSSIFSNSKVTIDGTCSSMKELIKGRSLKYLDELGTEEYVNSDDVFNFAIFVYTVNGQPDIIQQVYKKHPNYISYIITCKESELFDNIEDAKDNKNVFHTNP | 1.16 |
| 55 (protein, bait human Fc-tagged dimer) INVQIGNQKYSLCSNKIKKDLLDFYNTLGVSKSDKNLKDNIKKVNLYTKFRKRLYKDRLSIYANVAIKEKGEEVVPVKVVDEKENKENEEKTNILDQEIFTNFMQYNKNNFFCIDELGLDISIPFYKNSGFGANVVYQLPEMVYVNAYTNIYNTIIKGEFNSIDILKRISFFQFFDNFYLNAHYDFKSEKALLNLESKLYEYYNKHGDNIAFNNKIIVERNMHNEYDGSVCLSLKYNNNVFTPIFNFKDKTYEYVYDNLAANRKFSVKVDKERNVHFNYLSFDRVDESNKYFLFFNFIFSNPMQSIITLKREFIF | 0.922 |
| 79 (protein, bait human Fc-tagged dimer) YLEQIKNGISGHYTEDHNIKNNNCISFSDYERSIKNFAISSHAENNYDNIINEYKKIKDINNNINILSSVHRKGRILYDSFLEINKLENDKKEKHEKEDEYEDNDESFLETEEYEDNEDEKYNKDEDDYAESFIETDEYEDNEDDKYNKDEDDYSESFIETDEYDDNEEEQYNKDEDDYTDSFIETDHYENNDDKNEEEEEYNDQDNDYGYNFLETDEYDDSEEYDYDDKEYGESFLEKEEGEEMKDEEMKDEEMKDVEMKDEEMKDEEMKYDEMKNEEMKYDEMKDEVMKDEEMKDEVMKDEEMKDEQMKYEEFKNEESKNEESKNEESKNEESKNEEFKNEESKNEEFKNEEFKNEDMSYDEYMGYKKKEEDESYNTFNGAKKNNAANSFLEKDLQGDSDDELHSTFYSKNVDKENYDDKNIFYGYSDNDDESFLETDSYEEYEDEDKDVEDEYEESFLQNDEKKMVFYDLYKPEENEAYYEKKQKKEEKEEKEEKEQSLNKQNDMEDQEDNEEYKFEEENKEDLLDVQQDEELPSEGKQKVKGKSFDNEHLNEIQNVADVHAFIQKDMKYLDDLIDEEQTIKDAVKKSAYKGNKKLGNNKKSQMILEEEPEENFEEDADEELNKLMEQEKNIVDKEIKNSKANKANKKLQFNNANKQNKMYMKNEYNNKAKNNKNNKFEQQNYDESYMDDDYEQNEEFNDNNQAEDMKETNELDKINDELLTDQGPNEDTLLENNNKIFDNKFVAHKKREKSISPHSYQKVSTKVQNKEDMENKEEKQLINDEAAMTAEELVELENTEDVNTPTMVETEEIDSDENGNKAS | 1.06 |
